PMC8473724

Key:
Experiment in all cases: anti-FLAG co-immunoprecipitation, SILAC LC-MS
Conditions in all cases: chain shown with the change; Ramos PTP1B KO cells; n = 3; read off a plot; scale: log10 SILAC ratio
[1] = biological target: E3 ubiquitin-protein ligase CBL, P22681
[2] = biological target: T1, PLCγ1, P19174
T1 chain: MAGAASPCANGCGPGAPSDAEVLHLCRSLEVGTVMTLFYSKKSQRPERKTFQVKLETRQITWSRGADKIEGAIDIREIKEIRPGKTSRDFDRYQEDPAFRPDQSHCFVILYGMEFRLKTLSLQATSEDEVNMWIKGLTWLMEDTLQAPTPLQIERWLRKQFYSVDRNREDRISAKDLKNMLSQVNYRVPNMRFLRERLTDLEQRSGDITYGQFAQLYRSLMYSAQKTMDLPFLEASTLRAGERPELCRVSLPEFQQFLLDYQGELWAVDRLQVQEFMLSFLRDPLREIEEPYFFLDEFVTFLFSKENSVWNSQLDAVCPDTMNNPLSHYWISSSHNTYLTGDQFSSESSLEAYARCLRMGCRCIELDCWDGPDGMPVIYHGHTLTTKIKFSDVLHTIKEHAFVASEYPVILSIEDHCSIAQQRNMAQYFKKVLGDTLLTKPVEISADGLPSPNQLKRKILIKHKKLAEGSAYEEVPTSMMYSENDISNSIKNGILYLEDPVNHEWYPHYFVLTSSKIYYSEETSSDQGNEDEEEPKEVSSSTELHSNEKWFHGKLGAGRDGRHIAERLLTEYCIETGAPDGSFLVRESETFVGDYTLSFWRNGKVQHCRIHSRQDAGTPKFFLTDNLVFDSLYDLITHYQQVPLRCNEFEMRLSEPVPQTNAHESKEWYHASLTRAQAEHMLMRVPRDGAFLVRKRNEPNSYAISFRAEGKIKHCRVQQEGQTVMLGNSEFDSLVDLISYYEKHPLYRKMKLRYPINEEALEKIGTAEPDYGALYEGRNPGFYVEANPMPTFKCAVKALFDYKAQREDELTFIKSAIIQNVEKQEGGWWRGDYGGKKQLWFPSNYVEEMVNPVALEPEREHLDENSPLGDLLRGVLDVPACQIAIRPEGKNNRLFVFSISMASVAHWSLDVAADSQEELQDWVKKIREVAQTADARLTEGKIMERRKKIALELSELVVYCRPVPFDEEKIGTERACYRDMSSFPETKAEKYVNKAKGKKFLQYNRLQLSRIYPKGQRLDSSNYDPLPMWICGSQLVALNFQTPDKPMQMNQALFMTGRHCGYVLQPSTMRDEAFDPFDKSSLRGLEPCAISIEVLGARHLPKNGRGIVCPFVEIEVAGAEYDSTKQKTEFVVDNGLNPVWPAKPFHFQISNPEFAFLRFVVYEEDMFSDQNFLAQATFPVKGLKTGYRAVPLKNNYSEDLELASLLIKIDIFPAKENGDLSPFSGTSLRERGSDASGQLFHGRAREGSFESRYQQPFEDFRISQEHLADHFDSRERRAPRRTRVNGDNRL

[3] = biological target: T2, PLCγ2, P16885
T2 chain: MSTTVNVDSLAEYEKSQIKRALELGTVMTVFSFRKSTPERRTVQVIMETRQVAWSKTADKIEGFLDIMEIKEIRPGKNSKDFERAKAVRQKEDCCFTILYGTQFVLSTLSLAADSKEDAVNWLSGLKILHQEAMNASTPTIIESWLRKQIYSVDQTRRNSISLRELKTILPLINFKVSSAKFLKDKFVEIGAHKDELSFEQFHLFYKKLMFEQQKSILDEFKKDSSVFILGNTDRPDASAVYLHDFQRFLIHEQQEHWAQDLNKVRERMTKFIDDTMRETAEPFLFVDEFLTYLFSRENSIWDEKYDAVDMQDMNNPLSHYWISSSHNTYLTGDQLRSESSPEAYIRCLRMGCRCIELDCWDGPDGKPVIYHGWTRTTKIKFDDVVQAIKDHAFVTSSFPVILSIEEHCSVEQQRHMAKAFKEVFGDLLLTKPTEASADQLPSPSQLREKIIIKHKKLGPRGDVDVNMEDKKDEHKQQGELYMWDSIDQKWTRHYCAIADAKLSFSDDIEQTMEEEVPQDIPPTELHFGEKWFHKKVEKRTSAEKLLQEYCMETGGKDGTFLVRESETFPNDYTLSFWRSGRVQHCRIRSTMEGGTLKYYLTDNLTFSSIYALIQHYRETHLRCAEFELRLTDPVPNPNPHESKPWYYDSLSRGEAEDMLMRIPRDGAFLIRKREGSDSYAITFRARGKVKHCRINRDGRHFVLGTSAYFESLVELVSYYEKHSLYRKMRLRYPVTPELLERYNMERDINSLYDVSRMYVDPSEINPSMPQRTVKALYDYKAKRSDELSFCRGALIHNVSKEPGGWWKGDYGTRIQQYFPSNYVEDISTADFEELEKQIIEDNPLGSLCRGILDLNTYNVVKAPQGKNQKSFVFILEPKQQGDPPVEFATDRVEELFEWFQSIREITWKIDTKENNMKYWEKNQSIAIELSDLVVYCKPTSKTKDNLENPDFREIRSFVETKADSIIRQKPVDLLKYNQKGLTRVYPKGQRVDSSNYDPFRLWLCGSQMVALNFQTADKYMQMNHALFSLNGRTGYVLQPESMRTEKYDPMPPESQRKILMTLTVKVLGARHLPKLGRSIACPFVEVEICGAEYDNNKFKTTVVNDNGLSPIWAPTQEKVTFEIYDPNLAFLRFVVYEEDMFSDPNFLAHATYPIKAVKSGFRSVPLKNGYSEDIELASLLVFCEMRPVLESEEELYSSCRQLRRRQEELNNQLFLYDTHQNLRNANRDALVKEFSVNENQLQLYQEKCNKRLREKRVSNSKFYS

[4] = biological target: amyloid-like protein 2 (APLP2), Q06481
amyloid-like protein 2 (APLP2), Q06481, sequence (Q06481 32-763): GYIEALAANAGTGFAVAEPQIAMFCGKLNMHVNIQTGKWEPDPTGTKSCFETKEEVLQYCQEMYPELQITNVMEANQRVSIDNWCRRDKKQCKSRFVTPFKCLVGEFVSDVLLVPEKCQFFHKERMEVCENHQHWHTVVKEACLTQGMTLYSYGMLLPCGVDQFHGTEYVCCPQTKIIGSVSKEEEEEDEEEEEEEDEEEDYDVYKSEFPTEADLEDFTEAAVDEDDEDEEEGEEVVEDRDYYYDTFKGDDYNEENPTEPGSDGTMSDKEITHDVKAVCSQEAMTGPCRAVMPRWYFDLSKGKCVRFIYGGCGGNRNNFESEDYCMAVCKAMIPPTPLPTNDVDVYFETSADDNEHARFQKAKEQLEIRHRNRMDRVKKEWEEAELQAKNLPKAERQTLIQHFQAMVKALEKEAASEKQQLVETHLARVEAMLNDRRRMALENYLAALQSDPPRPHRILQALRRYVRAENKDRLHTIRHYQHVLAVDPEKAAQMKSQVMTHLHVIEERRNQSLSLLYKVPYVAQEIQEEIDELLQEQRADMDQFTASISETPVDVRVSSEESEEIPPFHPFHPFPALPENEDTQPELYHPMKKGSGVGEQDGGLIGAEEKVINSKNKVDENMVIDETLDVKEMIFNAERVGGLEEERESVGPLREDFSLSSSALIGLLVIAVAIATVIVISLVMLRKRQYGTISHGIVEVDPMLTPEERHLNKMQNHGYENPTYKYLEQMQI

[5] = biological target: T3, epidermal growth factor receptor substrate 15-like 1 (EPS15L1), Q9UBC2
T3 chain: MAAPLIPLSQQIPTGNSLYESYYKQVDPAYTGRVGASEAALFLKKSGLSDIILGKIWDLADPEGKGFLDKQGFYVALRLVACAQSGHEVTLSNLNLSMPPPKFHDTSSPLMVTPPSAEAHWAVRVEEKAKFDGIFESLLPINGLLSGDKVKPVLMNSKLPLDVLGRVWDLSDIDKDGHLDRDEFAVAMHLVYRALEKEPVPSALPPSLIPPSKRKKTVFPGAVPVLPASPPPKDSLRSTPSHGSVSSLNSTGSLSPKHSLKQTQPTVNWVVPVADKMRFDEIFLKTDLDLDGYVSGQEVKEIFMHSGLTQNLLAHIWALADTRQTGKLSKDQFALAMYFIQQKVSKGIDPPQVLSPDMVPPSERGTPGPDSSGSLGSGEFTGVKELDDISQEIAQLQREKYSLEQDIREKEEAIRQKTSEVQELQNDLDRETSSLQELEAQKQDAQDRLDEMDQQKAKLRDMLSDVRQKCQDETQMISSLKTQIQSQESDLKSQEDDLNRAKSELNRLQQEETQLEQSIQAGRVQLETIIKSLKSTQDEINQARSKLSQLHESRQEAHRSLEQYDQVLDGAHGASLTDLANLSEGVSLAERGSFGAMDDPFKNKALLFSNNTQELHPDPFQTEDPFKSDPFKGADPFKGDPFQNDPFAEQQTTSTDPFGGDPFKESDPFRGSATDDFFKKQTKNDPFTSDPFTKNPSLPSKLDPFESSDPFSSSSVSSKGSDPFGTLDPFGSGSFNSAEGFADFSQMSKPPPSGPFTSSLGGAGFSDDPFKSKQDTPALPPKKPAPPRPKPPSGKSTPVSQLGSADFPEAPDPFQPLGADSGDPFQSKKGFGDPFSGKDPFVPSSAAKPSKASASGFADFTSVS

[6] = biological target: growth factor receptor-bound protein 2 (GRB2), P62993
[7] = biological target: T4, intersectin-2 (ITSN2), Q9NZM3
T4 chain: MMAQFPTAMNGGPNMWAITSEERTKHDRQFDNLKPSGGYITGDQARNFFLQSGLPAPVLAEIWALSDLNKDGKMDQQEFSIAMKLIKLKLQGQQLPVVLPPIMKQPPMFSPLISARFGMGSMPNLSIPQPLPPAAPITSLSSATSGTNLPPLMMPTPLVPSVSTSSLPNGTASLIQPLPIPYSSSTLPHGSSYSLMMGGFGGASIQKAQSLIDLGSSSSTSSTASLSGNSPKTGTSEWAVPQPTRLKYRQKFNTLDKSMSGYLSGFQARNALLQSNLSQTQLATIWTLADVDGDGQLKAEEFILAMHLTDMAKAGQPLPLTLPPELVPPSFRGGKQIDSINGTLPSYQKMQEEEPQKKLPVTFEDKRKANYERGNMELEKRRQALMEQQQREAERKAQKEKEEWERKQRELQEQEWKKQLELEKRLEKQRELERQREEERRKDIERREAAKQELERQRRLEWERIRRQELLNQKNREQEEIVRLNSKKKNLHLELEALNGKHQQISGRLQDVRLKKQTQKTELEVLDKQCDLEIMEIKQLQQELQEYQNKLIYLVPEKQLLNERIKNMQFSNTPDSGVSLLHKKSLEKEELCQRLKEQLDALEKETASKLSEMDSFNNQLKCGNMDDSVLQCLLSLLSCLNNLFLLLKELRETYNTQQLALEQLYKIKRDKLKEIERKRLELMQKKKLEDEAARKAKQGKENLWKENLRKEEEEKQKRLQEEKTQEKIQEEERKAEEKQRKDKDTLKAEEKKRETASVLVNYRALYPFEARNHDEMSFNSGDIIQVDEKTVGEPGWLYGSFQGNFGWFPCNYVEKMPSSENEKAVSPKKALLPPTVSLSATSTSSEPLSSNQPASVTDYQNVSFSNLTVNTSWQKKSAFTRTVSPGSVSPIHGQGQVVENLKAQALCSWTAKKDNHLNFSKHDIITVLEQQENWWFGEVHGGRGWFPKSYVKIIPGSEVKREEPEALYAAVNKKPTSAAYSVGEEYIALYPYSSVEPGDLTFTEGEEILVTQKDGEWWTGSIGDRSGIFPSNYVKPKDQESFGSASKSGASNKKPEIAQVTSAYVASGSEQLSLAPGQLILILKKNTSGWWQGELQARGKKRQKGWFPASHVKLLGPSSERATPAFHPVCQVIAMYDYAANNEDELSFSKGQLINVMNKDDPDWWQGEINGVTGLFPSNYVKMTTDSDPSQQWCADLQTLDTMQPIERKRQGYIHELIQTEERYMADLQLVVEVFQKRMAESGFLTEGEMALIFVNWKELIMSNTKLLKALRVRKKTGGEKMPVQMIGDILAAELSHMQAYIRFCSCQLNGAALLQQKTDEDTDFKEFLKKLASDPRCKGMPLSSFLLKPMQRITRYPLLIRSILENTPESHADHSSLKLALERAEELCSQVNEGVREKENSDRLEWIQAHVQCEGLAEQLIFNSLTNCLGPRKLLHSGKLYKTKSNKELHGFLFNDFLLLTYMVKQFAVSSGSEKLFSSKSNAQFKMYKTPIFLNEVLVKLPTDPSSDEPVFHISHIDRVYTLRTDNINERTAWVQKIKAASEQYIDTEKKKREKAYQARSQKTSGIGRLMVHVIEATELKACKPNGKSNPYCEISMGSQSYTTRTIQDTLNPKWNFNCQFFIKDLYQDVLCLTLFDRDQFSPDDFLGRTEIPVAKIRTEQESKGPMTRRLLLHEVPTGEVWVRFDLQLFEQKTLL

B1: D181A; Y46F (protein)
chain: MEMEKEFEQIDKSGSWAAIYQDIRHEASDFPCRVAKLPKNKNRNRFRDVSPFDHSRIKLHQEDNDYINASLIKMEEAQRSYILTQGPLPNTCGHFWEMVWEQKSRGVVMLNRVMEKGSLKCAQYWPQKEEKEMIFEDTNLKLTLISEDIKSYYTVRQLELENLTTQETREILHFHYTTWPAFGVPESPASFLNFLFKVRESGSLSPEHGPVVVHCSAGIGRSGTFCLADTCLLLMDKRKDPSSVDIKKVLLEMRKFRMGLIQTADQLRFSYLAVIEGAKFIMGDSSVQDQWKELSHEDLEPPPEHIPPPPRPPKRILEPHNGKCREFFPNHQWVKEETQEDKDCPIKEEKGSPLNAAPYGIESMSQDTEVRSRVVGGSLRGAQAASPAKGEPSLPEKDEDHALSY
Work on B1 yielded an enrichment [1] of 0.74, an enrichment [2] of 0.87 and an enrichment [3] of 0.48. It also gave an enrichment [4] of 1.3, an enrichment [5] of 0.59 and an enrichment [6] of 0.87. The enrichment [7] was 0.62.
